Results taken from patent publication US6596687B1, “Cell adhesion inhibitors” (Biogen, Inc., priority 1995, dated 2003).
Square brackets hold non-standard residues; d marks the D form. * marks the point of attachment. 2‑MPUPA = 4-(N′-(2-methylphenyl)urea)phenylacetyl, Cc1ccccc1NC(=O)Nc1ccc(CC(=O)*)cc1; 2‑MPUB = not defined here; Ahx = NCCCCCC(=O)O

These binders were tested against VLA-4 (alpha4beta1 integrin) (UniProt P13612) (assay: Ramos/BSA-CS1 adhesion inhibition).
Sequence of VLA-4 (alpha4beta1 integrin) (UniProt P13612) (P13612 34-1032 limits assumed, chain 1 of 2): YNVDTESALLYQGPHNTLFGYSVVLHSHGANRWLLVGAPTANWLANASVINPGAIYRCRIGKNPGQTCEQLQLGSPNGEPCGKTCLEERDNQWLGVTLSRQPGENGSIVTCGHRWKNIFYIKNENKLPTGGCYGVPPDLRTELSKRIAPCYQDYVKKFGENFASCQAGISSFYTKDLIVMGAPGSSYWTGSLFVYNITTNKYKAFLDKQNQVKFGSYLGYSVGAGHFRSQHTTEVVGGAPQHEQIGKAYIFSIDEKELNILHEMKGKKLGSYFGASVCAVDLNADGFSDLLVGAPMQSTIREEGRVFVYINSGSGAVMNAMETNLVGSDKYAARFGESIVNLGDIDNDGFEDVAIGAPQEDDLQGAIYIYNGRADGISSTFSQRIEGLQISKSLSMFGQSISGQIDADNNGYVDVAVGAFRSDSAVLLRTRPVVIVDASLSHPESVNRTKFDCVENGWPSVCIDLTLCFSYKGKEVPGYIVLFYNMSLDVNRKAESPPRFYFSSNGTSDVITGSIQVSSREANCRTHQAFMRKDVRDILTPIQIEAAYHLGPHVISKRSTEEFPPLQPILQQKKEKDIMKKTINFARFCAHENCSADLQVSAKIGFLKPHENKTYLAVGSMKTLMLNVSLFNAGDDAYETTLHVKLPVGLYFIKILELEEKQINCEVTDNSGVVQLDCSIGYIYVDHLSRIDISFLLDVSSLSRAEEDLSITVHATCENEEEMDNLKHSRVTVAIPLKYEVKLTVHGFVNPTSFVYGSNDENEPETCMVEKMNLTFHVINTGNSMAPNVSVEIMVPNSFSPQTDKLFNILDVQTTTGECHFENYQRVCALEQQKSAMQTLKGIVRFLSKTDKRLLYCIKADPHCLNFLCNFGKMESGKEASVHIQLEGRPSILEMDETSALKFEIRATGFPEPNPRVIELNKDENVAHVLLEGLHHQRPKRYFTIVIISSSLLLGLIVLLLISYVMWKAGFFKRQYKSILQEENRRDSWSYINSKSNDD
Sequence of VLA-4 (alpha4beta1 integrin) (UniProt P13612) (P05556 21-798 limits assumed, chain 2 of 2, further chain): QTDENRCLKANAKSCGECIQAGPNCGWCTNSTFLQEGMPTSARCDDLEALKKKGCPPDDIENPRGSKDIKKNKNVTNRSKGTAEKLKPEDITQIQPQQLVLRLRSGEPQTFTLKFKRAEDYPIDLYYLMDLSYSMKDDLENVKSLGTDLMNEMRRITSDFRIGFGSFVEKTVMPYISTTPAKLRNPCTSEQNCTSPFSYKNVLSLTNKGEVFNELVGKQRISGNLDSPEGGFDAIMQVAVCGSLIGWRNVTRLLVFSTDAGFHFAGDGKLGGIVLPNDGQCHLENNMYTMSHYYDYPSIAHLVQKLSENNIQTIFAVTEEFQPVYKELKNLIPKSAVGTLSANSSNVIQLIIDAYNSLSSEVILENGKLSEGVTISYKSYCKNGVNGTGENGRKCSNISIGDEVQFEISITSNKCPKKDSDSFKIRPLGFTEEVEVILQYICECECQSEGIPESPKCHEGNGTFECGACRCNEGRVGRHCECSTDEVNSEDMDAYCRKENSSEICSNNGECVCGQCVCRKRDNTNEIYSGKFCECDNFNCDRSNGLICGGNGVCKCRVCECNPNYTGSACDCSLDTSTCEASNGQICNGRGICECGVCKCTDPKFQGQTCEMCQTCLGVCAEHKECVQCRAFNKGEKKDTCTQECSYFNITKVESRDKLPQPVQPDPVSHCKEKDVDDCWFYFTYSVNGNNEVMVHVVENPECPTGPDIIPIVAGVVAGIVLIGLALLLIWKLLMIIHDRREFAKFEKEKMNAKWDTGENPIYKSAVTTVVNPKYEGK

| Binder | IC50 |
| --- | --- |
| H-[dP][dV][dD][dL]-{2‑MPUB} (reading uncertain) [Compound 343] | > 10 µM |

Each binder was assayed against T1, VLA-4 (alpha4beta1 integrin) (UniProt P13612 34-1032; P05556 21-798, limits assumed) (assay: Ramos/BSA-CS1 adhesion inhibition).
T1 construct: whole, on cells; also called very late antigen-4; CD49d/CD29
T1 sequence (P13612 34-1032 limits assumed, chain 1 of 2): as the sequence (P13612 34-1032 limits assumed, chain 1 of 2) above
T1 sequence (P05556 21-798 limits assumed, chain 2 of 2): as the sequence (P05556 21-798 limits assumed, chain 2 of 2, further chain) above
Protocol: Following labelling, the cells were washed twice in assay buffer (24 mM TRIS, 137 mM NaCl, 2.7 mM KCl, pH 7.4, containing 0.1 BSA and 2mM glucose) to remove any cations originating from the culture medium. The cells were then resuspended in assay buffer to 4 ×10^6 cells/mL and 2 mM MnCl_2 was added to upregulate VLA4 on the surface of the cells.
Immediately prior to running the assay, we removed the BSA blocking solution from the 96-well plates and washed the wells with 100 μL of assay buffer. We then added to each well 25 μL of test cell adhesion inhibitory compound at 2×the final concentration and 25 μL of the labelled Ramos cells. […] Each concentration of compound was tested in triplicate. The compound and cells are allowed to incubate for 30 minutes at room temperature.
Percent binding is calculated by the formula: […]

| Binder | IC50 |
| --- | --- |
| LPVD (HELM PEPTIDE1{[Cc1ccccc1NC(=O)Nc1ccc(CC(=O)[*:2])cc1].L.P.V.D}$$$$V2.0; SMILES Cc1ccccc1NC(=O)Nc1ccc(CC(=O)N[C@@H](CC(C)C)C(=O)N2CCC[C@H]2C(=O)N[C@H](C(=O)N[C@@H](CC(=O)O)C(=O)O)C(C)C)cc1) [Compound 341] | > 10 µM |
| LDVM (HELM PEPTIDE1{[O=C(c1ccc2ccccc2n1)[*:2]].L.D.V.M}$$$$V2.0; SMILES CSCC[C@H](NC(=O)[C@@H](NC(=O)[C@H](CC(=O)O)NC(=O)[C@H](CC(C)C)NC(=O)c1ccc2ccccc2n1)C(C)C)C(=O)O) [Compound 186] | > 10 µM |
| MDVP (HELM PEPTIDE1{[Cc1ccccc1NC(=O)Nc1ccc(CC(=O)[*:2])cc1].M.D.V.P}$$$$V2.0; SMILES CSCC[C@H](NC(=O)Cc1ccc(NC(=O)Nc2ccccc2C)cc1)C(=O)N[C@@H](CC(=O)O)C(=O)N[C@H](C(=O)N1CCC[C@H]1C(=O)O)C(C)C) [Compound 315] | < 0.05 µM |
| {2‑MPUPA}-K(Ahx)DVP-OH [Compound 202] | 0.05 to 10 µM |
| LDVPST (HELM PEPTIDE1{[Cc1ccccc1NC(=O)Nc1ccc(CC(=O)[*:2])cc1].L.D.V.P.S.T}$$$$V2.0; SMILES Cc1ccccc1NC(=O)Nc1ccc(CC(=O)N[C@@H](CC(C)C)C(=O)N[C@@H](CC(=O)O)C(=O)N[C@H](C(=O)N2CCC[C@H]2C(=O)N[C@@H](CO)C(=O)N[C@H](C(=O)O)[C@@H](C)O)C(C)C)cc1) [Compound 338] | < 0.05 µM |
| {2‑MPUPA}-LDVPS-OH [Compound 337] | < 0.05 µM |
| VLPD (HELM PEPTIDE1{[Cc1ccccc1NC(=O)Nc1ccc(CC(=O)[*:2])cc1].V.L.P.D}$$$$V2.0; SMILES Cc1ccccc1NC(=O)Nc1ccc(CC(=O)N[C@H](C(=O)N[C@@H](CC(C)C)C(=O)N2CCC[C@H]2C(=O)N[C@@H](CC(=O)O)C(=O)O)C(C)C)cc1) [Compound 339] | > 10 µM |
| Ac-FLDV-OH [Compound 152] | > 10 µM |
| FLDV (HELM PEPTIDE1{[O=C(c1ccccc1)[*:2]].F.L.D.V}$$$$V2.0; SMILES CC(C)C[C@H](NC(=O)[C@H](Cc1ccccc1)NC(=O)c1ccccc1)C(=O)N[C@@H](CC(=O)O)C(=O)N[C@H](C(=O)O)C(C)C) [Compound 153] | > 10 µM |
